From PMC11660155

Tests used:
[1] = target: scCSGal-1–6H M120L Q142AzK-ss-bio (human); test: BLI; Octet RED96e; streptavidin tips loaded with 60 ug/mL biotinylated scCSGal-1 protein; vWF at 25 ug/mL as analyte; association 600 s, dissociation 150 s; PBS with 0.05% Tween 20 and 0.1% BSA, pH 7.4; 25 °C, 1000 rpm; read-out Rt = response at 600 s
[2] = target: scCSGal-1–6H M120L R141AzK-ss-bio (human); test: as above

von Willebrand factor (from UniProt P04275 764-2813) (natural protein)
Rt (specific BLI response at 600 s) [1]: 0.14 nm
Rt (specific BLI response at 600 s) [2]: 0.32 nm
